Data: patent US20220143178A1

Experiments:
[1] = target: Pertuzumab-specific HER2 antigen (Rhinogen®); assay: ELISA; antigen coated at 2 µg/ml, HRP anti-human light chain detection
[2] = target: Pertuzumab-specific HER2 antigen (Rhinogen®); assay: SPR, Biacore T200; IgG captured by anti-human Fc on CM5 chip, antigen flowed over

Pertuzumab (antibody)
EC50 [1]: 0.0153 µg/mL | Kd [2]: 2.81 nM
